B1: YFP-Parkin: YFP-tagged Parkin E3 ligase expressed from a transfected vector (protein, UniProt O60260 1-465, looked up)
E3 ubiquitin-protein ligase …: MIVFVRFNSSHGFPVEVDSDTSIFQLKEVVAKRQGVPADQLRVIFAGKELRNDWTVQNCDLDQQSIVHIVQRPWRKGQEMNATGGDDPRNAAGGCEREPQSLTRVDLSSSVLPGDSVGLAVILHTDSRKDSPPAGSPAGRSIYNSFYVYCKGPCQRVQPGKLRVQCSTCRQATLTLTQGPSCWDDVLIPNRMSGECQSPHCPGTSAEFFFKCGAHPTSDKETSVALHLIATNSRNITCITCTDVRSPVLVFQCNSRHVICLDCFHLYCVTRLNDRQFVHDPQLGYSLPCVAGCPNSLIKELHHFRILGEEQYNRYQQYGAEECVLQMGGVLCPRPGCGAGLLPEPDQRKVTCEGGNGLGCGFAFCRECKEAYHEGECSAVFEASGTTTQAYRVDERAAEQARWEAASKETIKKTTKPCPRCHVPVEKNGGCMHMKCPQPQCRLEWCWNCGCEWNRVCMGDHWFDV
modifications: YFP fusion
notes: YFP-tagged Parkin E3 ligase expressed from a transfected vector
B2: PINK1: exogenously expressed wild type PINK1 (V5 or myc tagged) (protein, UniProt Q9BXM7 78-581, looked up)
Serine/threonine-protein …: AARLQRQFVVRAWGCAGPCGRAVFLAFGLGLGLIEEKQAESRRAVSACQEIQAIFTQKSKPGPDPLDTRRLQGFRLEEYLIGQSIGKGCSAAVYEATMPTLPQNLEVTKSTGLLPGRGPGTSAPGEGQERAPGAPAFPLAIKMMWNISAGSSSEAILNTMSQELVPASRVALAGEYGAVTYRKSKRGPKQLAPHPNIIRVLRAFTSSVPLLPGALVDYPDVLPSRLHPEGLGHGRTLFLVMKNYPCTLRQYLCVNTPSPRLAAMMLLQLLEGVDHLVQQGIAHRDLKSDNILVELDPDGCPWLVIADFGCCLADESIGLQLPFSSWYVDRGGNGCLMAPEVSTARPGPRAVIDYSKADAWAVGAIAYEIFGLVNPFYGQGKAHLESRSYQEAQLPALPESVPPDVRQLVRALLQREASKRPSARVAANVLHLSLWGEHILALKNLKLDKMVGWLLQQSAATLLANRLTEKCCVETKMKMLFLANLECETLCQAALLLCSWRAAL
modifications: V5 or myc tag

Tests used:
[1] = system: PINK1+/+ or PINK1−/− MEFs; assay: YFP-Parkin recruitment to mitochondria in MEFs; type: cell-based, mouse; conditions: for Parkin recruited to mitochondria, % of cells: CCCP
Text: (§1) HeLa YFP-Parkin, PINK1+/+ SV40 transformed MEFs cells, PINK1−/− SV40 transformed MEF, M17 neuroblastoma control shRNA, M17 neuroblastoma PINK1, and Mfn1/2−/− MEF cell lines have been described previously (Narendra (2008) J Cell Biol 183: 795-803). PINK1+/+ and PINK1−/− primary MEFs were isolated from embryos using a standard protocol (Gautier (2008) Proc Natl Acad Sci USA 105: 11364-11369). Parkin+/+ and Parkin−/− transformed MEFs were created by isolation of primary cells from embryos of B6.129S4-Park2tm1Shn/J mice (Jackson Labs), using a standard protocol (Gautier (2008) Proc Natl Acad Sci USA 105: 11364-11369), followed by retroviral transduction of SV40 (Applied Biological Materials, Inc.). YFP-Parkin, YFPParkin mutants, mCherry-Parkin, PINK1-YFP, PINK1 KD-YFP, PINK1 Δ1-110-YFP, and Opa3-PINK1 Δ1-110-YFP are in C1 or N1 Clontech vectors. PINK1WT-V5, PINK1 KD-V5, and PINK1 Δ1-156-V5 are in pDest40 vector (Invitrogen). PINK1 patient mutations are in pLenti-V5 vector (Invitrogen). PINK1-myc is in a pCMBTNT vector (Promega).
Confocal microscopy of fixed samples, scoring of Parkin recruitment and Parkininduced mitophagy, and live cell imaging were performed as described previously (Narendra (2008) J Cell Biol 183: 795-803). Experiments in Mfn1/2 null cells were performed as described previously with minor modifications.
HeLa YFP-Parkin, E18 Rat cortical neurons, PINK1^+/+ SV40 transformed MEFs cells, PINK1^−/− SV40 transformed MEF, M17 neuroblastoma control shRNA, M17 neuroblastoma PINK1, Mfn1/2^−/− MEF, and Parl^−/− MEF cell lines have been described previously (Narendra (2008) J Cell Biol 183: 795-803). PINK1^+/+ and PINK1^−/− primary MEFs were isolated from embryos using a standard protocol (Gautier (2008) Proc Natl Acad Sci USA 105: 11364-11369). Parkin^+/+ and Parkin^−/− transformed MEFs were created by isolation of primary cells from embryos of B6.129S4-Park2^tm1Shn/J mice (Jackson Labs), using a standard protocol (Gautier (2008) Proc Natl Acad Sci USA 105: 11364-11369), followed by retroviral transduction of SV40 (Applied Biological Materials, Inc.). YFP-Parkin, YFP-Parkin mutants, mCherry-Parkin, PINK1-YFP, PINK1 KD-YFP, PINK1 Δ1-110-YFP, and Opa3-PINK1 Δ1-110-YFP are in C1 or N1 Clontech vectors. PINK1WT-V5, PINK1 KD-V5, and PINK1 Δ1-156-V5 are in pDest40 vector (Invitrogen). PINK1 patient mutations are in the pLenti-V5 vector (Invitrogen). PINK1-myc is in a pCMBTNT vector (Promega). The PARL shRNA construct targeting (5′ […] 3′) is in the pSuper-GFP vector. To make FRB-PINK1 (111-581)-YFP and Tom20 (1-33)-FKBP, PCR fragments containing PINK1 (111-581)-YFP and Tom20 (1-33) were cloned into the BamHI site of the pC4-RHE vector and the EcoRI and XbaI sites of pC4M-F2E vectors, respectively (ARIAD Pharmaceuticals). The rapamycin analogue AP21967 was obtained from ARIAD Pharmaceuticals. The PARL shRNA construct targeting (5′ […] 3′) is in the pSuper-GFP vector (OligoEngine).
Confocal microscopy of fixed samples, scoring of Parkin recruitment and Parkin-induced mitophagy, and live cell imageing were performed as described previously (Narendra (2008) J Cell Biol 183: 795-803). Experiments in Mfn1/2 null cells were performed as described previously with minor modifications described in the supplemental methods (Narendra (2008) J Cell Biol 183: 795-803).

[2] = system: PINK1+/+ or PINK1−/− MEFs; assay: Parkin-induced mitophagy in MEFs; type: cell-based, mouse; conditions: primary MEFs expressing YFP-Parkin, 20 μM CCCP, 24 hours; PINK1+/+ (CCCP line) or PINK−/− reconstituted with PINK1
Text: as §1
Confocal microscopy of fixed samples, scoring of Parkin recruitment and Parkininduced mitophagy, and live cell imaging were performed as described previously (Narendra (2008) J Cell Biol 183: 795-803). Experiments in Mfn1/2 null cells were performed as described previously with minor modifications. […]

HeLa cells = assay: Survival in glucose or galactose media after CCCP; type: cell-based
Text: To further confirm that cells had lost their mitochondria, their growth in glucose media or galactose media, which lacked glucose, was examined. […] In contrast, the majority of control cells, which had been treated with CCCP but lacked Parkin, retained their mitochondria and could survive in both glucose and galactose media for at least 4 days (FIG. 4H).
Cultured cells seeded in borosilicate chamber slides (Thermo Fisher Scientific) were transfected or cotransfected with YFP-Parkin, ECFP-Parkin, mCherry-Parkin, DsRed-Mito (Clontech Laboratories, Inc.), pcDNA3.1 (Invitrogen), vMIA, and/or Drp1K38A constructs using Fugene 6 (Roche). Parkin-myc was a gift from M. Cookson (National Institutes of Health, Bethesda, Md.). Cells were fixed 12-24 hours after transfection with 4% paraformaldehyde in PBS. Cells were stained with following primary antibodies: mouse monoclonal cytochrome c (BD), rabbit polyclonal Tom20 (Santa Cruz Biotechnology, Inc.), mouse monoclonal Parkin PRK8 (Santa Cruz Biotechnology, Inc.), rabbit polyclonal PMP70 (Invitrogen), and/or mouse monoclonal TRAP1 (Abcam); and with the following secondary antibodies: mouse and/or rabbit Alexa 488, 594, and 633 (Invitrogen). For assessment of mitochondrial membrane potential, cells were pulsed with 50 nM Mito-Tracker red (Invitrogen) for 15 min, washed, and incubated for an additional 10 minutes before fixation or imaging. […]

Row | Molecule | YFP-Parkin recruited to mitochondria, % of cells ([1]; PINK1+/+ primary MEFs, 20 μM CCCP, 3 hours) [%] | Parkin recruited to mitochondria, % of cells ([1]; SV40 transformed PINK1+/+ MEFs) [%] | cells with no detectable mitochondria [2] [%] | cells without detectable mitochondria able to survive (HeLa cells; 4 days in galactose media after 10 μM CCCP 72 hours) [%] | cells without detectable mitochondria able to survive (HeLa cells; 4 days in glucose media after 10 μM CCCP 72 hours) [%] | reconstitution of YFP-Parkin recruitment ([1]; PINK1−/− primary MEFs co-transfected with construct, 20 μM CCCP, 3 hours) | YFP-Parkin recruited to mitochondria, % of cells ([1]; PINK1−/− primary MEFs expressing the PINK1 construct, 20 μM CCCP, 3 hours) [%] | Parkin recruited to mitochondria, % of cells ([1]; SV40 transformed PINK1−/− MEFs with exogenous construct) [%]
1 | N#CC(C#N)=NNc1cccc(Cl)c1 [CCCP, carbonyl cyanide m-chlorophenylhydrazone] | 43.3±8.1 | 60.7±7.7 | 66.1±16.8 | – | – | – | – | –
2 | B1 | – | – | – | 0 | 72.8 | – | – | –
3 | B2 | – | – | 65.5±5.0 | – | – | reconstituted | 78.6±3.9 | 72.8±7.7

— patent US20120277286A1, “COMPOSITIONS AND METHODS FOR THE TREATMENT OR PREVENTION OF MITOCHONDRIAL DISEASES” (The Government of the USA, as represented by the Secretary, …, priority 2009, published 2012)
